This data set can be described thus: soluble on expression in E. coli; label from the status in PepcDB or PDB records.
With “MGSDKIHHHHHHMKVRIRDFIETTEGLYFAVNTYAHPKNKFFAFLRYVPYEFVDFKIEDNNIREINGRKYIKMAESKIAYKFLEEKFSKYLYYDETINVLMHAIPKEDVKRILRPKERLNEIINEENNLNELEEKCRKLALILEDYGVPIKSMGVSGSLLLKLNNKNSDIDFVIYGKDMHKKAREALKQAFEDNKLKPLSDDFWKIAYKKRIKDKTLTYEEFVFYEKRKYNRGIVDNTMFDLLFTREWDEITEKYGDKRYKNLGFAKIEGRVLNDDFAFDNPAVYKIECYNDEDIKEVVSFTHTYAGQCFNGEEIVARGKLEEVIDKSGERYKRIVVGTTREAFNEYIKIKR”, the “soluble on expression in E. coli” value is given as “not soluble”.

Consider “MSLSALIINEYREQGGTAISFPEDISRARQKLFRFLDNRFDSDQYRENVRELTPAIMAVLPVEFRTRLAPQNDTMSLIASAMKECSEAKQAVLLNAPEHQKMKEVSEGIASLFRLMPEQVGPLMTMVTSMLGVIEGHHHHHH”, for which the “soluble on expression in E. coli” value is “not soluble”.

On to “MGSDKIHHHHHHSDAGKDRRKKQKQKERQEDDDNNDEPAGGSEMGESGKAKDEKERTSVLEKQAGKKGDDESSSSEEDKEDEDEKKDNSTVIIREENEIIKAEKELDEEKVDQFRQSRVLRFTRSADEARVLPTDAAKFKRDTITQTLKSKELNDGVQLPLDKKPTATASTN”, for which the “soluble on expression in E. coli” value was “not soluble”.

On to “MKQIKWWLLAVLLVVGLTGCGSQTTKKQATQQAASTKKISPYVNQQTPTFYVHGFQGSAKSTNTLIAHAEKTAHAHKVLVATVSTSGQVTLTGKWRGRVRNPIIQVVFKNNLAQYDQQSAWLAKVITTVQQQHAFKHYNIVAHSAGCVASVNMLMTQQTTTFPKINKLVTIAGPFDGVVGEDDVANQNSFLTSGQPKYLHAAYELLAAKRNNFPKNVQLLNIVGTLNDGSHSDSLVTNVSARSIKYLLRGRDVDYTEKDFYGAHAQHSQLHENAKVALAVDRFLWHR”, for which the “soluble on expression in E. coli” value is on record as “not soluble”.

Consider “GKDFTYNVDANVSFARNKILYMDEVPKQFSYMNQTGGSTGRQTGVYNYIRLYQYSDFITGADGELTLKPELPQPYQKVYPGDAMYADLNGDHIVDGNDKSVAGYATRPEYVFGMNMGFDWKGFNFTMQWVGSKNVNRMYDIEYRIPYTNAGKRGLLTYFYDGCWTPENQLGATYPRPSEESESWNSEPSTLWLVDASYLRLKSLSFGYTITGKKFLKKLGLSSLGLNFSGYNLLTFSPLKYLDPESDPNRFGDYPLIKVYSFGLNLNF”, for which the “soluble on expression in E. coli” value was “not soluble”.

Turning to “GPLGSSYSMEQVEGITSEYIVKNADMFAVAVSLVSGKILYISNQVASIFHCKKDAFSDAKFVEFLAPHDVSVFHSYTTPYKLPPWSVCSGLDSFTQECMEEKSFFCRVSVGKHHENEIRYQPFRMTPYLVKVQEQQGAESQLCCLLLAERVHSGYEAPRIPPEKRIFTTTHTPNCLFQAVDERAVPLLGYLPQDLIETPVLVQLHPSDRPLMLAIHKKILQAGGQPFDYSPIRFRTRNGEYITLDTSWSSFINPWSRKISFIIGRHKVRVGPLNEDVFAAPPCPEEKTPHPSVQELTEQIHRLLMQPVP”, the “soluble on expression in E. coli” value was “soluble”.

As to “MITQEMKDLINNQLAMVATVDAKGQPNIGPKRSMRLWDDKTFIYNENTDGQTRINIEDNGKIEIAFVDRERLLGYRFVGTAEIQTEGAYYEAAKKWAQGRMGVPKAVGIIHVERIFNLQSGANAGKEINSESN”, the “soluble on expression in E. coli” value is recorded as “not soluble”.

In the case of “MKYLAGIVTFNPNIERLDQNIRAIYPQVSHIYIVDNGSKNKEEISQLVADYNEEGHLTVDYLTENKGIAYALNCIGQFAVAQEFDWFLTLDQDSVVLGDLIDNYENYLHLPKVGMLSCLYQDMNRENLVMQEFDYKEIEECITSAALMKTSVFEETSGFAEEMFIDFVDSEMNYRLSEMGYKTYQVNFIGLLHEIGHSSRVKKFGHVFHVLNHSPFRKYYMIRNAIYIIKKYGKKKRYKYLVFMRNEFVRVLVAEEQKSKKIVAMIKGLKDGLLMKVDKYGKLEHHHHHH”, the “soluble on expression in E. coli” value is reported as “soluble”.

On to “MSLSQSSRLSALPIFQASLSASQSPRYIFSSQNGTRIVFIQDNIIRWYNVLTDSLYHSLNFSRHLVLDDTFHVISSTSGDLLCLFNDNEIFVMEVPWGYSNVEDVSIQDAFQIFHYSIDEEEVGPKSSIKKVLFHPKSYRDSCIVVLKEDDTITMFDILNSQEKPIVLNKPNNSFGLDARVNDITDLEEGHHHHHH”, for which the “soluble on expression in E. coli” value was “soluble”.

Consider “MRTDPERFILDNAAIMHPPHVPELRLHLATEAHELWLKTEEELEEIGLPPPFWAFAWAGGQGLARYILDHPESVCGKRVLDFASGSGLVAIAAAKAGAAKVLAADIDPWTETAIRLNAALNGVDIGFTGLDLVGKPVDADVLLAGDVFYDRAFADLLVPWFVELTEKGMIVLVGDPGRAYLPKERLRAEATYQVPVTRALEDSDVKKTTVWRFILEHHHHHH”, for which the “soluble on expression in E. coli” value is on record as “soluble”.

Turning to “MGSDKIHHHHHHMMTSTPRLLQAIQQTTTAILKTNLVGIYLHGSYVLGSYNEQVSDLDYLIVVRRSLTLAEKRQLMTATITQLWPLAPHKGLEFHVLLLSATQHFVHPCPFDFHFSKYHYEDYQRTPLAYLKAMHGTDPDLAAHLTILQAAGQVLLGPAITTVFGPIPAVAYWDSIKSDIANAETAIVQLPMYTVLNLCRVRAYQQDQLIISKQAGGEWGLQQLPTQWHPLIRQALAAYAGQQDEQVIRWSRPNLVAFARIMLAELGLKSE”, the “soluble on expression in E. coli” value was “not soluble”.

Turning to “MSDMSEQSVEIASSQLGTKDFWDQRYELELKNFKQHGDEGEVWFGTSSETRIVKYLIDSKTGKDAKILDLGCGNGSVLRKLRSKGFQSLKGVDYCQKAVDLSAAASKAEREEEEDEELVDIEFEQLDITTPPADFFSSKFDVILDKGTWDAMSLSDEREARLKAYLGFLDNGLSAGGRFVIFSCNFTFDEMCSQFGGGGGSTSLEIVCEVPASHSFSFGGKQGVTSTGAVFRKKTL”, the “soluble on expression in E. coli” value is reported as “not soluble”.

As to “MSLSDDIKVLGISGSLRSGSYNSAALQEAIGLVPPGMSIELADISGIPLYNEDVYALGFPPAVERFREQIRAADALLFATPEYNYSMAGVLKNAIDWASRPPEQPFSGKPAAILGASAGRFGTARAQYHLRQTLVFLDVHPLNKPEVMISSAQNAFDAQGRLLDDKARELIQQQLQALQLWVREGGSHHHHHH”, the “soluble on expression in E. coli” value is “soluble”.

On to “MSLNDILNEFIDKYFPLSNEPLLPDFKDLNYPENLPTLVIDLNYVIAKLEYDRKTGWRVLKRPYADRFFKELSSFYEIVIWSDDNFPVAQEVISKWGIPAIGCLHRDQCSKKKKSYVKDLKRLGRNLDRVVIIDHDAKAFMLQPENGILIKEFHGDLNDKEMLCLIDLLKSFAISTHDISQFLKKHGGGDYNIGKRYLQQKEGHHHHHH”, for which the “soluble on expression in E. coli” value is reported as “soluble”.

For the sequence “MSQFISLTQYQLIEVQGADAEKYLQGQLTSDVVRLASGATTLTAHCDPKGKMNAIYRLFKVSSEQFFLLVKKDILPSGLDALKKYAVFSKVSFDLRDWQIIGVIGEKCGKITPNFSLEIDEKRSILLNETELPVNFNGDEKIWEVADIQAGLPNLSPQTQNEFIPQALNLQAIEQAISFTKGCYIGQETVARAKYRGANKRAMFIFKVQTQQEAEIGSEIEMQLEANWRKTGTITSAVNLDGVLWLQVVMNNDIDSEQQFRLLNSEILLERVQLPYSITE”, the “soluble on expression in E. coli” value was “not soluble”.

On to “MKMKTDDTFNHAHADRLLLPNASLLGEVENMLADGRSVMLKATGNSMLPFIVGGRDSVLVRRPSGIQALQVWQIALAHLPDSRYVLHRIVRIHGAEIVLMGDGNLKETESCRFPDITGVVTRIIRNGRYVDCDAGGERCKAKIWGRLLPIRRYLLYIYRRVWI”, for which the “soluble on expression in E. coli” value was “not soluble”.

For the sequence “MGSDKIHHHHHHMTVELLNEPLSRYPAFDTADPEELRQALSSVYGAKLVEGPIAADFHARSNFVQLDDIALAFGVGTGSIAVEFPEGECARLQIALSGQFTTRSGGTSTAINARQAGIISPGRNARTEYGQNYSFTLLRVSTSALERKLTTLLGCKPKASLEFEPAANNEAPQVVNLRRMLCFLANQLNCSPLPPVVLAELQEAITLLFLSAFRHNYSRQLERESHGIAPKHVRQVEEYIEANWMRPITIEKLTALTGISSRGIFKAFQRSRGYSPMAFAKRVRLQHAHNLLSDGATPTTVTAAALSCGFSNLGHFARDYRDMFGEKPSETLQRARP”, the “soluble on expression in E. coli” value is “not soluble”.

Regarding “MGHHHHHHGGHMSLTISLAKGQKVDLTKTNPGLSKVVVGLGWDTNKYDGGHDFDLDSSVFLLDAAGKCASPNDFIFYNQLEGGNGSVVHSGDNLTGAGEGDDENVKVNLSAVPANIDKISFVITIHDAEARSQNFGQVSNAFVRIVNEETNEELIRYDLAEDFSIETAIIAGELYRHNGEWKFSAIGSGYQGGLARIATDYGLQVGEGGS”, the “soluble on expression in E. coli” value was “soluble”.

With “MNIISEHGFRIDGRRPAQIRNINTRLGLNRNAEGSCYLEHGNTKVLCAVYGPYEGKSSKRIEDKCAIVCQYSATKFSGLERKNRTRGDRKSTEISRLLEKAFESVILTEAFPRSQLDIFCEVIQGDGSNLAACVNATSLALADAGIPMKGIASAATCGVVDGKPIVDLTSREETDLLPRVTLATICGRDEVILVELQNRLHIDHLSTVMDAAKATCADVYECLAVVAQQHLKACAPILGN”, the “soluble on expression in E. coli” value is “not soluble”.

With “MGSDKIHHHHHHMNDDFLFSDDEPDIAEEEVSEPYNILIVDDDEEIHTITKMALGEFKLDGRPLKFHSVYSGKDAIAFLQDNTNIAMMLLDVVMETDHAGLDVAQWVRETRKNRLIRIVLRTGQPGQAPEEDVIARYDIDDYKEKTELTYRKLVTLMYSCLRAYRDLNAIERNKRGLEKVINASAEVFSARSMQALCQGILEQLVALITLSDDAMYCRIDALTASSDTDDPFEIIGGTGEYEEAVGQPVHGEIDWDIVRPMQQSPQNVDFRIVDGNYYGLYKTSSSRQYLLFIRGVRDLSELDQNLLGLFVNNSSIAIDNLQATENEREAQRELLYSVGEAIEKHSIDEISHHVKRSAEMAGQLAIFSGATQEQAEALKQAASVYDIGKVSVQMELAQRADVLSIHEYEEIMQKVIQGHDYLRQTDSAVAKVAALIAQDIHERWNGSGFPSQKSAKAIDLNARILSITSHFDALRTQRNYRDAKESEDAADYLLQHSGKFFDPELVGLMLDNLDAMEKIRQRFLDKKQDTRH”, the “soluble on expression in E. coli” value is reported as “not soluble”.

On to “MNVANNNCGQMLSDSSESSEPPRAQAGAVFGKKDKGKKADTKKKNTATEGSKRVKKEKKKDDGEAAKGDPTNKTNMTPAPPQTHPIVEQWVLRALDVGVDKLREEFRGLAKYTRPDMTQVMFNANQSPDIAITKNRYQDVPCQDQSAVKLDQPSPCNYIHANYVGCPMIPEKRFICAQGPLDQTIDEFWWMVIQNKVEQIVMLCKTVEMGKLKCAQYWPAAQGEKLTLKSGCVVENVSGSKPMERDPEIQITMLNLTYSGGQTMSVRHLQWTEWPDRGVPPCKLTSLELLSAIRGSKVPIVVHCSAGIGRTGTIVAIEYILEKIAENKPCPPMPELVKALRDQRAFSIQNDVQYLFIHRVMLNYFLEKYKEKYAALLTAENVAKYDKFIKDYNAAVGQ”, for which the “soluble on expression in E. coli” value is “not soluble”.

For “ADETLAEFHVEMGGCENCHADGEPSKDGAYEFEQCQSCHGSLAEMDDNHKPHDGLLMCADCHAPHEAKVGEKPTCDTCHDDGRTAK”, the “soluble on expression in E. coli” value is reported as “soluble”.

These data come from the DeepSol protein solubility set.
